Source: US20120263701

T1: soluble tissue factor, P13726
T1 chain: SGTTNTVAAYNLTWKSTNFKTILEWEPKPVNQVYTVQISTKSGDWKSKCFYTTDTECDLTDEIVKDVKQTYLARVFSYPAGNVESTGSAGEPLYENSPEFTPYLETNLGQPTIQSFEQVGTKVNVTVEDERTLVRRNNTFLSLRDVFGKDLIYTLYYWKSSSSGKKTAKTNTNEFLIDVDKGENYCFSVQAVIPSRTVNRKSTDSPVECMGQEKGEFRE

B1: FVIIa-AE288 (protein)
chain 1: ANAFLEELRPGSLERECKEEQCSFEEAREIFKDAERTKLFWISYSDGDQCASSPCQNGGSCKDQLQSYICFCLPAFEGRNCETHKDDQLICVNENGGCEQYCSDHTGTKRSCRCHEGYSLLADGVSCTPTVEYPCGKIPILEKRNASKPQGR
chain 2: IVGGKVCPKGECPWQVLLLVNGAQLCGGTLINTIWVVSAAHCFDKIKNWRNLIAVLGEHDLSEHDGDEQSRRVAQVIIPSTYVPGTTNHDIALLRLHQPVVLTDHVVPLCLPERTFSERTLAFVRFSLVSGWGQLLDRGATALELMVLNVPRLMTQDCLQQSRKVGDSPNITEYMFCAGYSDGSKDSCKGDSGGPHATHYRGTWYLTGIVSWGQGCATVGHFGVYTRVSQYIEWLQKLMRSEPRPGVLLRAPFPGSPGTSESATPESGPGSEPATSGSETPGTSESATPESGPGSEPATSGSETPGTSESATPESGPGTSTEPSEGSAPGSPAGSPTSTEEGTSESATPESGPGSEPATSGSETPGTSESATPESGPGSPAGSPTSTEEGSPAGSPTSTEEGTSTEPSEGSAPGTSESATPESGPGTSESATPESGPGTSESATPESGPGSEPATSGSETPGSEPATSGSETPGSPAGSPTSTEEGTSTEPSEGSAPGTSTEPSEGSAPGSEPATSGSETPGTSESATPESGPGTSTEPSEGSAPGSSS

Assays:
[1] = molecular target: T1, soluble tissue factor, P13726

| Molecule | Concentration by Activity (ng/ml), aPTT based factor assay (FIX/cFXI1/XTEN (pCW0735)) [ng/mL] | Fraction Active (activity / ELISA) (FIX/cFXI1/XTEN (pCW0735)) [%] | clotting activity against FIX-XTEN without cleavage site (aPTT based factor assay) (FIX/cFXI1/XTEN (pCW0735)) | Concentration by Activity (ng/ml), aPTT based factor assay (FIX/cFXI2/XTEN (pCW0736)) [ng/mL] | Fraction Active (activity / ELISA) (FIX/cFXI2/XTEN (pCW0736)) [%] | clotting activity against FIX-XTEN without cleavage site (aPTT based factor assay) (FIX/cFXI2/XTEN (pCW0736)) | Concentration by Activity (ng/ml), aPTT based factor assay (FIX/cFXI3/XTEN (pCW0737)) [ng/mL] | Fraction Active (activity / ELISA) (FIX/cFXI3/XTEN (pCW0737)) [%] | clotting activity against FIX-XTEN without cleavage site (aPTT based factor assay) (FIX/cFXI3/XTEN (pCW0737)) | soluble tissue factor (sTF) induced clotting (Stago STA-Clot FVIIa activity assay) [1] |
| --- | --- | --- | --- | --- | --- | --- | --- | --- | --- | --- |
| FXI protease | 7 | 30 | enhanced the clotting activity by greater than 30-fold | 9 | 34 | enhanced the clotting activity by greater than 30-fold | 11 | 40 | enhanced the clotting activity by greater than 30-fold |  |
| B1 |  |  |  |  |  |  |  |  |  | an activity equivalent to 112 U/ml of FVIIa activity |
